B1: ERO1-like protein alpha (Homo sapiens), Q96HE7 (parent)
chain: MGRGWGFLFGLLGAVWLLSSGHGEEQPPETAAQRCFCQVSGYLDDCTCDVETIDRFNNYRLFPRLQKLLESDYFRYYKVNLKRPCPFWNDISQCGRRDCAVKPCQSDEVPDGIKSASYKYSEEANNLIEECEQAERLGAVDESLSEETQKAVLQWTKHDDSSDNFCEADDIQSPEAEYVDLLLNPERYTGYKGPDAWKIWNVIYEENCFKPQTIKRPLNPLASGQGTSEENTFYSWLEGLCVEKRAFYRLISGLHASINVHLSARYLLQETWLEKKWGHNITEFQQRFDGILTEGEGPRRLKNLYFLYLIELRALSKVLPFFERPDFQLFTGNKIQDEENKMLLLEILHEIKSFPLHFDENSFFAGDKKEAHKLKEDFRLHFRNISRIMDCVGCFKCRLWGKLQTQGLGTALKILFSEKLIANMPESGPSYEFHLTRQEIVSLFNAFGRISTSVKELENFRNLLQNIH

The variants in the assay derive from B1. Particulars: with pdia1_human P4HB.
For the variant MGRGWGFLFGLLGAVWLLSSGHGEEQPPETAAQRCFCQVSGYLDDCTCDVETIDRFNNYRLFPRLQKLLESDYFRYYKVNLKRPCPFWNDISQSGRRDCAVKPCQSDEVPDGIKSASYKYSEEANNLIEECEQAERLGAVDESLSEETQKAVLQWTKHDDSSDNFCEADDIQSPEAEYVDLLLNPERYTGYKGPDAWKIWNVIYEENCFKPQTIKRPLNPLASGQGTSEENTFYSWLEGLCVEKRAFYRLISGLHASINVHLSARYLLQETWLEKKWGHNITEFQQRFDGILTEGEGPRRLKNLYFLYLIELRALSKVLPFFERPDFQLFTGNKIQDEENKMLLLEILHEIKSFPLHFDENSFFAGDKKEAHKLKEDFRLHFRNISRIMDCVGCFKCRLWGKLQTQGLGTALKILFSEKLIANMPESGPSYEFHLTRQEIVSLFNAFGRISTSVKELENFRNLLQNIH [C94S], the “effect of a mutation on the interaction” value is recorded as “disrupting interaction”.

Values taken from IntAct's records for PubMed 20802462.
